From patent US11065314B2, “Peptides and combination of peptides for use in immunotherapy against breast cancer and other cancers” (Immatics Biotechnologies GmbH, priority 2015, dated 2021)
Square brackets hold non-standard residues; d marks the D form. Ends that are not written are not given here. pT = C[C@@H](OP(=O)(O)O)[C@H](N)C(=O)O

System: CD8+ T cells of healthy HLA-A*02 donors
Test: In vitro T-cell priming (aAPC with pMHC and anti-CD28), pMHC multimer readout
Format: cell-based, human
Conditions: HLA class I peptides, Table 10A
Excerpt: In order to obtain information regarding the immunogenicity of the TUMAPs of the present invention, the inventors performed investigations using an in vitro T-cell priming assay based on repeated stimulations of CD8+ T cells with artificial antigen presenting cells (aAPCs) loaded with peptide/MHC complexes and anti-CD28 antibody.
In order to perform in vitro stimulations by artificial antigen presenting cells loaded with peptide-MHC complex (pMHC) and anti-CD28 antibody, the inventors first isolated CD8+ T cells from fresh HLA-A*02 leukapheresis products via positive selection using CD8 microbeads (Miltenyi Biotec, Bergisch-Gladbach, Germany) of healthy donors obtained from the University clinics Mannheim, Germany, after informed consent.
PBMCs and isolated CD8+ lymphocytes were incubated in T-cell medium (TCM) until use consisting of RPMI-Glutamax (Invitrogen, Karlsruhe, Germany) supplemented with 10% heat inactivated human AB serum (PAN-Biotech, Aidenbach, Germany), 100 U/ml Penicillin/100 μg/ml Streptomycin (Cambrex, Cologne, Germany), 1 mM sodium pyruvate (CC Pro, Oberdorla, Germany), 20 μg/ml Gentamycin (Cambrex). 2.5 ng/ml IL-7 (PromoCell, Heidelberg, Germany) and 10 U/ml IL-2 (Novartis Pharma, Nümberg, Germany) were also added to the TCM at this step.
Generation of pMHC/anti-CD28 coated beads, T-cell stimulations and readout was performed in a highly defined in vitro system using four different pMHC molecules per stimulation condition and 8 different pMHC molecules per readout condition.
The purified co-stimulatory mouse IgG2a anti human CD28 Ab 9.3 (Jung et al., 1987) was chemically biotinylated using Sulfo-N-hydroxysuccinimidobiotin as recommended by the manufacturer (Perbio, Bonn, Germany). Beads used were 5.6 μm diameter streptavidin coated polystyrene particles (Bangs Laboratories, Illinois, USA).
800.000 beads/200 μl were coated in 96-well plates in the presence of 4×12.5 ng different biotin-pMHC, washed and 600 ng biotin anti-CD28 were added subsequently in a volume of 200 μl. Stimulations were initiated in 96-well plates by co-incubating 1×10^6 CD8+ T cells with 2×10^5 washed coated beads in 200 μl TCM supplemented with 5 ng/ml IL-12 (PromoCell) for 3 days at 37° C. Half of the medium was then exchanged by fresh TCM supplemented with 80 U/ml IL-2 and incubating was continued for 4 days at 37° C. This stimulation cycle was performed for a total of three times. For the pMHC multimer readout using 8 different pMHC molecules per condition, a two-dimensional combinatorial coding approach was used as previously described (Andersen et al., 2012) with minor modifications encompassing coupling to 5 different fluorochromes. Finally, multimeric analyses were performed by staining the cells with Live/dead near IR dye (Invitrogen, Karlsruhe, Germany), CD8-FITC antibody clone SK1 (BD, Heidelberg, Germany) and fluorescent pMHC multimers. For analysis, a BD LSRII SORP cytometer equipped with appropriate lasers and filters was used. Peptide specific cells were calculated as percentage of total CD8+ cells. Evaluation of multimeric analysis was done using the FlowJo software (Tree Star, Oregon, USA). In vitro priming of specific multimer+CD8+ lymphocytes was detected by comparing to negative control stimulations.

| Sequence | wells (in vitro immunogenicity, positive wells) |
| --- | --- |
| TLSSIKVEV (listed as Homo sapiens) [SEQ ID NO: 50, peptide useful for personalized cancer therapies, source gene MXRA5] | + (<20% = +) |

Target: HLA-A*02:01 (Homo sapiens, UniProt P04439, D140Y/D185E/D98H/E176V/E277Q/G131W/G231S/I119V/I121R/I166T/I218V/L300P/L318F/N151K/N90K/P208A/P217A/Q86G/Q94H/R138H/R169H/T345S)
Test: MHC binding assay: UV-ligand exchange with β2m ELISA
Conditions: binding to HLA-A*02:01, UV-ligand exchange
Excerpt: Candidate peptides for T cell based therapies according to the present invention were further tested for their MHC binding capacity (affinity). The individual peptide-MHC complexes were produced by UV-ligand exchange, where a UV-sensitive peptide is cleaved upon UV-irradiation, and exchanged with the peptide of interest as analyzed. Only peptide candidates that can effectively bind and stabilize the peptide-receptive MHC molecules prevent dissociation of the MHC complexes. To determine the yield of the exchange reaction, an ELISA was performed based on the detection of the light chain (β2m) of stabilized MHC complexes. The assay was performed as generally described in Rodenko et al. (Rodenko et al., 2006).
96 well MAXISorp plates (NUNC) were coated over night with 2 ug/ml streptavidin in PBS at room temperature, washed 4× and blocked for 1 h at 37° C. in 2% BSA containing blocking buffer. Refolded HLA-A*02:01/MLA-001 monomers served as standards, covering the range of 15-500 ng/ml. Peptide-MHC monomers of the UV-exchange reaction were diluted 100-fold in blocking buffer. Samples were incubated for 1 h at 37° C., washed four times, incubated with 2 ug/ml HRP conjugated anti-β2m for 1 h at 37° C., washed again and detected with TMB solution that is stopped with […]. Absorption was measured at 450 nm. Candidate peptides that show a high exchange yield (preferably higher than 50%, most preferred higher than 75%) are generally preferred for a generation and production of antibodies or fragments thereof, and/or T cell receptors or fragments thereof, as they show sufficient avidity to the MHC molecules and prevent dissociation of the MHC complexes.

| Sequence | Peptide Exchange (peptide exchange yield) |
| --- | --- |
| ALEAUQLYL (ALEA[pT]QLYL; listed as Homo sapiens) [SEQ ID NO: 29, HLA-A*02 peptide, source gene DEPDC4; U = phospho-threonine] | “+++” (≥50 = +++) |
| ALNPVIYTV (listed as Homo sapiens) [SEQ ID NO: 5, HLA-A*02 peptide, source gene DRD4] | “++” (≥20% = ++) |
| FLVEHVLTL (listed as Homo sapiens) [SEQ ID NO: 42, HLA-A*02 peptide, source gene printed 5LC39A6] | “++++” (≥75% = ++++) |
| GLHSLPPEV (listed as Homo sapiens) [SEQ ID NO: 10, HLA-A*02 peptide, source gene LRRC8E] | “+++” (≥50 = +++) |
| GLSYIYNTV (listed as Homo sapiens) [SEQ ID NO: 31, HLA-A*02 peptide, source gene COG6] | “++” (≥20% = ++) |
| GLVATLQSL (listed as Homo sapiens) [SEQ ID NO: 32, HLA-A*02 peptide, source gene IFI6] | “+++” (≥50 = +++) |
| LLMUVAGLKL (LLM[pT]VAGLKL; listed as Homo sapiens) [SEQ ID NO: 38, HLA-A*02 peptide, source gene PCNXL3; U = phospho-threonine] | “++++” (≥75% = ++++) |
| SLAEPRVSV (listed as Homo sapiens) [SEQ ID NO: 27, HLA-A*02 peptide, source gene FASN] | “+++” (≥50 = +++) |
| SLAWDVPAA (listed as Homo sapiens) [SEQ ID NO: 26, HLA-A*02 peptide, source gene FASN] | “+++” (≥50 = +++) |
| SLFPSLVVV (listed as Homo sapiens) [SEQ ID NO: 15, HLA-A*02 peptide, source gene PLEC] | “+++” (≥50 = +++) |
| SLNDQGYLL (listed as Homo sapiens) [SEQ ID NO: 41, HLA-A*02 peptide, source gene MCM8] | “+++” (≥50 = +++) |
| SLVEGEAVHLA (listed as Homo sapiens) [SEQ ID NO: 4, HLA-A*02 peptide, source genes TFAP2E, TFAP2A, TFAP2B, TFAP2C] | “++” (≥20% = ++) |
| TIASSIEKA (listed as Homo sapiens) [SEQ ID NO: 17, HLA-A*02 peptide, source gene STPG2] | “++” (≥20% = ++) |
| YILLQSPQL (listed as Homo sapiens) [SEQ ID NO: 18, HLA-A*02 peptide, source gene MUC6] | “++++” (≥75% = ++++) |

More lines, now with the values ahead:

| Peptide Exchange (peptide exchange yield) | Sequence |
| --- | --- |
| “++” (≥20% = ++) | ALEEQLHQV (listed as Homo sapiens) [SEQ ID NO: 19, HLA-A*02 peptide, source genes KRT25, KRT28, KRT27] |
| “+++” (≥50 = +++) | ALTALQNYL (listed as Homo sapiens) [SEQ ID NO: 6, HLA-A*02 peptide, source gene TFAP2B] |
| “++++” (≥75% = ++++) | FIIPTVATA (listed as Homo sapiens) [SEQ ID NO: 7, HLA-A*02 peptide, source gene ABCC11] |
| “+++” (≥50 = +++) | FLDEEVKLI (listed as Homo sapiens) [SEQ ID NO: 43, HLA-A*02 peptide, source gene FTL] |
| “++” (≥20% = ++) | FLSSEAANV (listed as Homo sapiens) [SEQ ID NO: 30, HLA-A*02 peptide, source gene TNFAIP2] |
| “+++” (≥50 = +++) | FMSKLVPAI (listed as Homo sapiens) [SEQ ID NO: 9, HLA-A*02 peptide, source gene TPRG1] |
| “+++” (≥50 = +++) | FSFPVSVGV (listed as Homo sapiens) [SEQ ID NO: 20, HLA-A*02 peptide, source gene DUSP4] |
| “++” (≥20% = ++) | GLLPTSVSPRV (listed as Homo sapiens) [SEQ ID NO: 11, HLA-A*02 peptide, source gene SCUBE2] |
| “++++” (≥75% = ++++) | GLVQSLTSI (listed as Homo sapiens) [SEQ ID NO: 8, HLA-A*02 peptide, source gene ABCC11] |
| “++” (≥20% = ++) | ILFDVVVFL (listed as Homo sapiens) [SEQ ID NO: 25, HLA-A*02 peptide, source gene C4orf3] |
| “++” (≥20% = ++) | ILTELPPGV (listed as Homo sapiens) [SEQ ID NO: 33, HLA-A*02 peptide, source gene ZNF407] |
| “++” (≥20% = ++) | KAFPFYNTV (listed as Homo sapiens) [SEQ ID NO: 12, HLA-A*02 peptide, source gene NAIP] |
| “++++” (≥75% = ++++) | KLLDMELEM (listed as Homo sapiens) [SEQ ID NO: 39, HLA-A*02 peptide, source gene FAH] |
| “++” (≥20% = ++) | KLYEGIPVL (listed as Homo sapiens) [SEQ ID NO: 13, HLA-A*02 peptide, source gene NEK10] |
| “+++” (≥50 = +++) | KQLELELEV (listed as Homo sapiens) [SEQ ID NO: 14, HLA-A*02 peptide, source gene MUC6] |
| “++++” (≥75% = ++++) | SLFSVPFFL (listed as Homo sapiens) [SEQ ID NO: 28, HLA-A*02 peptide, source gene TM9SF1] |
| “++++” (≥75% = ++++) | SLLSEIQAL (listed as Homo sapiens) [SEQ ID NO: 35, HLA-A*02 peptide, source genes AKAP9, PCNT] |
| “++++” (≥75% = ++++) | SMMGLLTNL (listed as Homo sapiens) [SEQ ID NO: 16, HLA-A*02 peptide, source gene ESR1] |
| “++++” (≥75% = ++++) | TLLGLAVNV (listed as Homo sapiens) [SEQ ID NO: 36, HLA-A*02 peptide, source gene CHPT1] |
